Assay results as given in patent publication US20250009896A1, “SUPR[…] BASED VIRAL […] CAPTURE FOR PREVENTION AND THERAPY OF VIRAL INFECTION” (The Johns Hopkins University, priority 2023, published 2025).

Columns and labels:
[1] = biological target: T1, Recombinant human angiotensin-converting enzyme 2 (ACE2) protein, carrier-free (R&D Systems) (human), Q9BYF1
[2] = biological target: T1, Recombinant human …; assay: calculated reference value for the zeta potential of the mixture

T1 sequence (Q9BYF1 18-740 limits assumed): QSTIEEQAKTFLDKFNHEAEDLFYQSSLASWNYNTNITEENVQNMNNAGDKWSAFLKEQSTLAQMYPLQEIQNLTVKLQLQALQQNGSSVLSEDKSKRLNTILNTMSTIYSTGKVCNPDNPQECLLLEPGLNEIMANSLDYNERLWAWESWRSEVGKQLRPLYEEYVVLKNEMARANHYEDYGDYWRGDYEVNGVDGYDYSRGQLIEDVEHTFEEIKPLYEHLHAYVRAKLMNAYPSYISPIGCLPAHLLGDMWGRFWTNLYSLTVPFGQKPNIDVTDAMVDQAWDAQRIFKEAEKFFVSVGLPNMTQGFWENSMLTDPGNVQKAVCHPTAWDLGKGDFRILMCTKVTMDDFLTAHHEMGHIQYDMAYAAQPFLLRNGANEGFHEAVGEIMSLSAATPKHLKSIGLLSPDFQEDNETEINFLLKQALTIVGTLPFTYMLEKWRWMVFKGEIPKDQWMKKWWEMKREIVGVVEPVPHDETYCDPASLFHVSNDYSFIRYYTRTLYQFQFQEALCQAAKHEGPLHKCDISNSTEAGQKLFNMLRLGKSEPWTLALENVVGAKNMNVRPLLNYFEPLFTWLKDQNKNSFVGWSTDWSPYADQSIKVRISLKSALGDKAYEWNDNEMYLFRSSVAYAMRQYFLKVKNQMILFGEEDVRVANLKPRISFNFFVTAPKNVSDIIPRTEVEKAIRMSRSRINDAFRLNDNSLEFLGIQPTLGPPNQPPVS

VVVGKKGGYPKYPCTGSGSDGDELCGWYPHWPYR (modifications not checked) [sLigand peptide amphiphile (scrambled analog of Ligand)]
zeta potential of the mixture, measured [1]: -19.2 mV | intensity-averaged zeta potential calculated assuming no interaction [2]: -19 mV
